From the supplement of paper PMC7877785
± gives the uncertainty stated by the source.

Assay: self-splicing fitness, log relative to wild type (ln ratio); higher = more splicing; Tetrahymena group I intron in knt gene, E. coli kanamycin selection, DiMSum; sequences stand for … in CUCUCU…GGAGGGAAAAGUUAUCAGGCAUGCACCUGGUAGCUAGUCUUUAAACCAAUAGAUUGCAUCGGUUUAAAAGGCAAGACCGUCAAAUUGCGGGAAAGGGGUCAACAGCCGUUCAGUACCAAGUCUCAGGGGAAACUUUGAGAUGGCCUUGCAAAGGGUAUGGUAAUAAGCUGACGGACAUGGUCCUAACCACGCAGCCAAGUCCUAAGUCAACAGAUCUUCUGUUGAUAUGGAUGCAGUUCACAGACUAAAUGUCGGUCGGGGAAGAUGUAUUCUUCUCAUAAGAUAUAGUCGGACCUCUCCUUAAUGGGAGCUAGCGGAUGAAGUGAUGCAACACUGGAGCCGCUGGGAACUAAUUUGUAUGCGAAAGUAUAUUGAUUAGUUUUGGAGUACUCGUGGUCG
Method in brief: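 Colonies from six replicate transformations of E. coli BL21(DE3) were pooled and amplicon-sequenced on an Illumina HiSeq 2500. The library placed an intron with all eight P1ex-region nucleotides randomised inside the knt kanamycin-resistance gene on pET-22b(+), and cells grew overnight at 37°C or 30°C on LB agar with or without 25 μg/mL kanamycin (plus 100 μg/mL carbenicillin, 50 μM IPTG, 0.2% rhamnose). Fitness is the DiMSum error-weighted combination of wild-type-normalised replicate fold changes, kanamycin versus none.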

GACUAGCAAUAUUACGCGGG
self-splicing fitness (ln) (30 °C): -2.7 ± 0.22 | self-splicing fitness (ln) (37 °C): -1.75 ± 0.18

CUCAAGCAAUAUUACGGAUU
self-splicing fitness (ln) (30 °C): -3.66 ± 0.17 | self-splicing fitness (ln) (37 °C): -2.81 ± 0.19

AGAAAGCAAUAUUACGAGUC
self-splicing fitness (ln) (30 °C): -3.82 ± 0.33 | self-splicing fitness (ln) (37 °C): -1.57 ± 0.18

GGGUAGCAAUAUUACGGUGA
self-splicing fitness (ln) (30 °C): -1.74 ± 0.19 | self-splicing fitness (ln) (37 °C): 0.155 ± 0.16

CAGCAGCAAUAUUACGCUAA
self-splicing fitness (ln) (30 °C): -2.47 ± 0.2 | self-splicing fitness (ln) (37 °C): -1.72 ± 0.13

CUCAAGCAAUAUUACGAAGA
self-splicing fitness (ln) (30 °C): -3.8 ± 0.25 | self-splicing fitness (ln) (37 °C): -2.55 ± 0.2

CUCAAGCAAUAUUACGUACG
self-splicing fitness (ln) (30 °C): -1.02 ± 0.065 | self-splicing fitness (ln) (37 °C): -0.705 ± 0.088

GCUCAGCAAUAUUACGUGGG
self-splicing fitness (ln) (30 °C): -3.65 ± 0.19 | self-splicing fitness (ln) (37 °C): -1.85 ± 0.16

AGAUAGCAAUAUUACGACGG
self-splicing fitness (ln) (30 °C): -2.09 ± 0.2 | self-splicing fitness (ln) (37 °C): -1.55 ± 0.25

CAGAAGCAAUAUUACGAGCU
self-splicing fitness (ln) (30 °C): -2.12 ± 0.18 | self-splicing fitness (ln) (37 °C): -1.77 ± 0.2

UCAGAGCAAUAUUACGUACG
self-splicing fitness (ln) (30 °C): -1.96 ± 0.24 | self-splicing fitness (ln) (37 °C): -1.96 ± 0.28

GAAUAGCAAUAUUACGAUGC
self-splicing fitness (ln) (30 °C): -1.02 ± 0.095 | self-splicing fitness (ln) (37 °C): -0.245 ± 0.12

AGUAAGCAAUAUUACGAAUG
self-splicing fitness (ln) (30 °C): -1.15 ± 0.28

CUUAAGCAAUAUUACGGAGC
self-splicing fitness (ln) (37 °C): -4.02 ± 0.39

UUGGAGCAAUAUUACGAUGG
self-splicing fitness (ln) (30 °C): -1.53 ± 0.21 | self-splicing fitness (ln) (37 °C): -1.54 ± 0.21

UAGCAGCAAUAUUACGAUUG
self-splicing fitness (ln) (30 °C): -0.536 ± 0.12 | self-splicing fitness (ln) (37 °C): -0.509 ± 0.14

UAAAAGCAAUAUUACGGCAA
self-splicing fitness (ln) (30 °C): -0.166 ± 0.1 | self-splicing fitness (ln) (37 °C): -0.176 ± 0.1

ACAGAGCAAUAUUACGGAAU
self-splicing fitness (ln) (30 °C): -4.08 ± 0.29 | self-splicing fitness (ln) (37 °C): -1.86 ± 0.31

GUCUAGCAAUAUUACGCAUG
self-splicing fitness (ln) (30 °C): -0.786 ± 0.1 | self-splicing fitness (ln) (37 °C): -0.64 ± 0.16

ACGAAGCAAUAUUACGAAGG
self-splicing fitness (ln) (30 °C): -2.21 ± 0.17 | self-splicing fitness (ln) (37 °C): -1.4 ± 0.15

CACCAGCAAUAUUACGAGUC
self-splicing fitness (ln) (30 °C): -4.09 ± 0.19 | self-splicing fitness (ln) (37 °C): -1.74 ± 0.14

GUAAAGCAAUAUUACGCUAC
self-splicing fitness (ln) (30 °C): -4.2 ± 0.32 | self-splicing fitness (ln) (37 °C): -1.87 ± 0.37

GCUCAGCAAUAUUACGGGUU
self-splicing fitness (ln) (30 °C): -1.29 ± 0.1 | self-splicing fitness (ln) (37 °C): -1.09 ± 0.1

GCUGAGCAAUAUUACGUUAG
self-splicing fitness (ln) (30 °C): -2.86 ± 0.12 | self-splicing fitness (ln) (37 °C): -1.74 ± 0.17

CAUUAGCAAUAUUACGAGGA
self-splicing fitness (ln) (30 °C): -2.75 ± 0.35

AGGAAGCAAUAUUACGGACC
self-splicing fitness (ln) (30 °C): -0.483 ± 0.27 | self-splicing fitness (ln) (37 °C): 0.238 ± 0.27

GCGUAGCAAUAUUACGUAUC
self-splicing fitness (ln) (30 °C): -3.35 ± 0.38 | self-splicing fitness (ln) (37 °C): -0.739 ± 0.2

UCGUAGCAAUAUUACGUCGC
self-splicing fitness (ln) (37 °C): -1.37 ± 0.41

CAUCAGCAAUAUUACGACAG
self-splicing fitness (ln) (30 °C): 0.0306 ± 0.087 | self-splicing fitness (ln) (37 °C): 0.00869 ± 0.13

UCCAAGCAAUAUUACGGAAA
self-splicing fitness (ln) (30 °C): -2.19 ± 0.2 | self-splicing fitness (ln) (37 °C): -1.51 ± 0.23

CGCAAGCAAUAUUACGAGAG
self-splicing fitness (ln) (30 °C): -2.52 ± 0.1 | self-splicing fitness (ln) (37 °C): -2.24 ± 0.15

CCGUAGCAAUAUUACGUAUU
self-splicing fitness (ln) (30 °C): -4.16 ± 0.28 | self-splicing fitness (ln) (37 °C): -3.58 ± 0.39

ACCGAGCAAUAUUACGAUCC
self-splicing fitness (ln) (30 °C): -2.86 ± 0.34 | self-splicing fitness (ln) (37 °C): -1.94 ± 0.29

AUUGAGCAAUAUUACGGCUC
self-splicing fitness (ln) (37 °C): -1.77 ± 0.32

UCCGAGCAAUAUUACGCACU
self-splicing fitness (ln) (30 °C): -2.93 ± 0.25 | self-splicing fitness (ln) (37 °C): -1.99 ± 0.22

GCAAAGCAAUAUUACGGGUC
self-splicing fitness (ln) (30 °C): -2.55 ± 0.14 | self-splicing fitness (ln) (37 °C): -1.05 ± 0.12

GAUUAGCAAUAUUACGAAUA
self-splicing fitness (ln) (30 °C): -1.1 ± 0.29 | self-splicing fitness (ln) (37 °C): -0.71 ± 0.26

GCGCAGCAAUAUUACGCGAG
self-splicing fitness (ln) (30 °C): -1.66 ± 0.08 | self-splicing fitness (ln) (37 °C): -0.987 ± 0.089

GCUUAGCAAUAUUACGUUGG
self-splicing fitness (ln) (30 °C): -1.59 ± 0.1 | self-splicing fitness (ln) (37 °C): -0.814 ± 0.14

ACACAGCAAUAUUACGGCCA
self-splicing fitness (ln) (30 °C): -1.18 ± 0.12 | self-splicing fitness (ln) (37 °C): -1.17 ± 0.11

UCUGAGCAAUAUUACGAAUA
self-splicing fitness (ln) (37 °C): -1.82 ± 0.48

GUUCAGCAAUAUUACGUUUU
self-splicing fitness (ln) (30 °C): -0.661 ± 0.052 | self-splicing fitness (ln) (37 °C): -0.216 ± 0.062

GAAUAGCAAUAUUACGUUCG
self-splicing fitness (ln) (30 °C): -1.16 ± 0.13 | self-splicing fitness (ln) (37 °C): -0.541 ± 0.17

GGAAAGCAAUAUUACGUGGA
self-splicing fitness (ln) (30 °C): -3.49 ± 0.28 | self-splicing fitness (ln) (37 °C): -1.96 ± 0.23
